Here are results for eleven sequences from the supplement of paper PMC9170038.

The data set relates to MS2 coat protein. Nature of the data set: apparent KD of MS2 coat protein; designed switch direction (-1 OFF switch, 1 ON switch): 1; higher = weaker reporter binding. The gist of the method:
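Stalled E. coli RNA polymerase transcribed designed RNA switches on Illumina chips, which were then titrated with SNAP-549-labelled MS2 coat protein, doubling from 0.7 or 1.5 nM to 3 µM. Steps lasted from 0.8–1.5 h at the lowest concentration to 10–20 min at the highest. The apparent KD is each design's median over clusters of curve-fitted normalised fluorescence.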

Where [1] appears, read: input ligand: microRNA oligo, concentration not stated.
The mark [2] stands for this setting: Eterna round: R95, input ligand: FMN 200 uM.
[3] abbreviates: Eterna round: R95, input ligand: microRNA oligo, concentration not stated.
Setting [4] is: Eterna round: R95, input ligand: none.

As to “AGUCCAGCCUGAGCUGGACAAAAGCAUGUACAUGAGGAUCACCCAUGUCAUGUACAAGCUUUUUGCUCGUUUUAAAA [Zipper 46 - 13] (Eterna round: R96, puzzle: Sensor for hsa-mir-208a)”, the “apparent KD of MS2 coat protein” value amounted to 633 nM (input ligand: FMN 200 uM), 12.9 nM under setting [1] and 611 nM (input ligand: none).

In the case of “AGUCCAGCCUGAGCUGGACAAAAGCAUGUACAUGAGGAUCACCCAUGUCAUGUACAAGCUUUUUGCUCGUUUUAAAA [Zipper 46 - 13] (puzzle: Sensor for hsa-mir-208a)”, the “apparent KD of MS2 coat protein” value reads like this: under setting [2], 477 nM; under setting [3], 12.9 nM; under setting [4], 1010 nM.

Turning to “AGUCCAGCCUGAGCUGGACAAAAGCAUGUACAUGAGGAUCACCCAUGUUCAUGUACAAGCUUUUUGCAAGUCAAAAU [Mat - hsa-mir-208a - Mod of JL - 80] (puzzle: Sensor for hsa-mir-208a)”, the “apparent KD of MS2 coat protein” value worked out at 723 nM under setting [2], 13.8 nM under setting [3] and 641 nM under setting [4].

As to “AGUCCAGCCUGAGCUGGACAAAAGCAUGUACAUGAGGAUCACCCAUGUUCAUGUACAAGCUUUUUGCUCGUCUUAAA [JL zipper 52] (Eterna round: R96, puzzle: Sensor for hsa-mir-208a)”, the “apparent KD of MS2 coat protein” value by setting is: (input ligand: FMN 200 uM) 615 nM; under setting [1], 13.8 nM; (input ligand: none) 636 nM.

In the case of “AGUCCAGCCUGAGCUGGACAAAAGCAUGUACAUGAGGAUCACCCAUGUUCAUGUACAAGCUUUUUGCUCGUCUUAAA [salish99_208a_r3_026] (puzzle: Sensor for hsa-mir-208a)”, the “apparent KD of MS2 coat protein” value is, setting by setting: under setting [2], 483 nM; under setting [3], 14.6 nM; under setting [4], 533 nM.

Consider “AGUCCAGCCUGAGCUGGACAAAAGCAUGUACAUGAGGAUCACCCAUGUUCAUGUACAAGCUUUUUGCUCGUCUUACC [salish99_208a_r3_079] (puzzle: Sensor for hsa-mir-208a)”, for which the “apparent KD of MS2 coat protein” value under setting [2] was found to be 669 nM, the “apparent KD of MS2 coat protein” value under setting [3] amounted to 15.8 nM and the “apparent KD of MS2 coat protein” value under setting [4] was found to be 722 nM.

Take “AGUCCAGCCUGAGCUGGACAAAAGCAUGUACAUGAGGAUCACCCAUGUUCAUGUACAAGCUUUUUGCUCGUCUUAGC [salish99_208a_r3_063] (puzzle: Sensor for hsa-mir-208a)”: the “apparent KD of MS2 coat protein” value under setting [2] was 837 nM, the “apparent KD of MS2 coat protein” value under setting [3] was found to be 14.6 nM and the “apparent KD of MS2 coat protein” value under setting [4] was determined as 648 nM.

“AGUCCAGCCUGAGCUGGACAAAAGCAUGUACAUGAGGAUCACCCAUGUUCAUGUACAAGCUUUUUGCUCGUCUUAUU [salish99_208a_r3_047] (puzzle: Sensor for hsa-mir-208a)”: the “apparent KD of MS2 coat protein” value reads like this: under setting [2], 457 nM; under setting [3], 14.1 nM; under setting [4], 725 nM.

On to “AGUCCAGCCUGAGCUGGACAAAAGCAUGUACAUGAGGAUCACCCAUGUUCAUGUACAAGCUUUUUGCUCGUCUUCAA [salish99_208a_r3_097x] (puzzle: Sensor for hsa-mir-208a)”, for which the “apparent KD of MS2 coat protein” value reads like this: under setting [2], 701 nM; under setting [3], 13.7 nM; under setting [4], 525 nM.

In the case of “AGUCCAGCCUGAGCUGGACAAAAGCAUGUACAUGAGGAUCACCCAUGUUCAUGUACAAGCUUUUUGCUCGUCUUGCA [salish99_208a_r3_104x] (puzzle: Sensor for hsa-mir-208a)”, the “apparent KD of MS2 coat protein” value by setting is: under setting [2], 450 nM; under setting [3], 15 nM; under setting [4], 415 nM.

Turning to “AGUCCUGAAAAGAAAAUACAGAGAGAUGUACAUGAGGAUCACCCAUGUCAUGUACAAGUUCUAUGCUCGUCAUAUAA [Sensorship 22 - Jieux - Sensor for hsa-mir-208a] (puzzle: Sensor for hsa-mir-208a)”, the “apparent KD of MS2 coat protein” value by setting is: under setting [2], 510 nM; under setting [3], 106 nM; under setting [4], 617 nM.
